According to patent US20180064827:

Key:
Test in all cases: cell_activity
ZFN 64552 (synthetic) = conditions: pair with 66083 or 66084, 5 ug/mL
ZFN 66075 (synthetic) = conditions: pair with 64555, 5 ug/mL
ZFN 66079 (synthetic) = conditions: pair with 64555, 5 ug/mL
ZFN 60289 (synthetic) = conditions: pair with 60287, K562
ZFN 60137 (synthetic) = conditions: pair with 60334, K562
ZFN 60043 (synthetic) = conditions: pair with 60045, K562
ZFN 60392 (synthetic) = conditions: pair with 65022, Hepa1-6
ZFN 64989 (synthetic) = conditions: pair with 65021, Hepa1-6
ZFN 64992 (synthetic) = conditions: pair with 65021, Hepa1-6
ZFN 60413 (synthetic) = conditions: pair with 64944, Hepa1-6
ZFN 64951 (synthetic) = conditions: pair with 64946, Hepa1-6
ZFN 64952 (synthetic) = conditions: pair with 64944, Hepa1-6
ZFN 60416 (synthetic) = conditions: pair with 64866, Hepa1-6
ZFN 64848 (synthetic) = conditions: pair with 64866, Hepa1-6
ZFN 64859 (synthetic) = conditions: pair with 64869, Hepa1-6
ZFN 60133 (synthetic) = conditions: pair with 60134, K562
ZFN 60254 (synthetic) = conditions: pair with 60259, K562; N7a version 60256 gave 74.32
ZFN 60502 (synthetic) = conditions: pair with 64066, HepG2, 40 ug/mL
ZFN 64080 (synthetic) = conditions: pair with 60501, HepG2, 40 ug/mL
ZFN 67458 (synthetic) = conditions: pair with 60501, HepG2, 40 ug/mL
ZFN 58780 (synthetic) = conditions: pair with 65094, Hepa1-6
ZFN 65085 (synthetic) = conditions: pair with 65098, Hepa1-6
ZFN 65086 (synthetic) = conditions: pair with 65094, Hepa1-6
ZFN 60417 (synthetic) = conditions: pair with 64859, Hepa1-6
ZFN 64866 (synthetic) = conditions: pair with 64859, Hepa1-6
ZFN 64869 (synthetic) = conditions: pair with 64859, Hepa1-6
ZFN 60750 (synthetic) = conditions: pair with 67495, HepG2, 40 ug/mL
ZFN 25277 (synthetic) = conditions: pair with 25264, K562, 200 ng
ZFN 60501 (synthetic) = conditions: pair with 67458, HepG2, 40 ug/mL
ZFN 64066 (synthetic) = conditions: pair with 60502, HepG2, 40 ug/mL
ZFN 67451 (synthetic) = conditions: pair with 60502, HepG2, 40 ug/mL
ZFN 60259 (synthetic) = conditions: pair with 60254, K562
ZFN 60412 (synthetic) = conditions: pair with 64951, Hepa1-6
ZFN 64944 (synthetic) = conditions: pair with 64952, Hepa1-6
ZFN 64946 (synthetic) = conditions: pair with 64951, Hepa1-6
ZFN 64947 (synthetic) = conditions: pair with 64952, Hepa1-6
ZFN 60423 (synthetic) = conditions: pair with 64793, Hepa1-6
ZFN 64842 (synthetic) = conditions: pair with 64793, Hepa1-6
ZFN 64844 (synthetic) = conditions: pair with 64793, Hepa1-6

Sequence: ACTTGCTGCATATGTGGCTAAAGCAATA (double strand) [M. mulatta HAO1 left]
- activity (ZFN 64552 (synthetic)): 80.6 % indel
- activity (ZFN 66075 (synthetic)): 86.9 % indel
- activity (ZFN 66079 (synthetic)): 84.2 % indel

Sequence: AGAGAAGTGGATCAGTCTCTGCCTCAAC (double strand) [human PCSK9 60289 site]
- activity (ZFN 60289 (synthetic)): 73.1 % indel

Sequence: AGATGGGGGTCTTACCGGGGGGCTGGTA (double strand) [human PCSK9 60137 site]
- activity (ZFN 60137 (synthetic)): 67.9 % indel

Sequence: AGGATCCGTGGAGGTTGCCTGGCACCTA (double strand) [human PCSK9 60043 site]
- activity (ZFN 60043 (synthetic)): 65.4 % indel

Sequence: AGGATGGAGATTATGAAGAGCTGATGCT (double strand) [mouse PCSK9 site G left]
- activity (ZFN 60392 (synthetic)): 69.2 % indel
- activity (ZFN 64989 (synthetic)): 83.3 % indel
- activity (ZFN 64992 (synthetic)): 79.8 % indel

Sequence: CACATGGGGCAACTTCAGGGCCTACAGA (double strand) [mouse PCSK9 site E right]
- activity (ZFN 60413 (synthetic)): 41.4 % indel
- activity (ZFN 64951 (synthetic)): 51.3 % indel
- activity (ZFN 64952 (synthetic)): 49.1 % indel

Sequence: CAGAGCATCCCATGGAACCTGGAGCGAA (double strand) [mouse PCSK9 site B left]
- activity (ZFN 60416 (synthetic)): 35.7 % indel
- activity (ZFN 64848 (synthetic)): 73.6 % indel
- activity (ZFN 64859 (synthetic)): 82.4 % indel

Sequence: CCGCCCGGTACCGTGGAGGGGTAATCCG (double strand) [human PCSK9 60133 site]
- activity (ZFN 60133 (synthetic)): 72.6 % indel

Sequence: CGCTGCCGGCAACTTCCGGGACGATGCC (double strand) [human PCSK9 60254 site]
- activity (ZFN 60254 (synthetic)): 75.7 % indel

Sequence: CTGCCTTGCTGGACTGGTATTTGTGTCT (double strand) [human TTR 60502 site]
- activity (ZFN 60502 (synthetic)): 37.3 % indel
- activity (ZFN 64080 (synthetic)): 47 % indel
- activity (ZFN 67458 (synthetic)): 47.6 % indel

Sequence: CTGGAGGCTGCCAGGAACCTACATTGTG (double strand) [mouse PCSK9 site J left]
- activity (ZFN 58780 (synthetic)): 69.6 % indel
- activity (ZFN 65085 (synthetic)): 73.5 % indel
- activity (ZFN 65086 (synthetic)): 77.8 % indel

Sequence: CTGGTGCCATGCTGGGATAATTCGCTCC (double strand) [mouse PCSK9 site B right]
- activity (ZFN 60417 (synthetic)): 53 % indel
- activity (ZFN 64866 (synthetic)): 79 % indel
- activity (ZFN 64869 (synthetic)): 82.4 % indel

Sequence: CTTACTGGAAGGCACTTGGCATCTCCCC (double strand) [human TTR 60750 site]
- activity (ZFN 60750 (synthetic)): 61.8 % indel

Sequence: GAAAGGGACTGAAGCTGCTGGGGCCATG (double strand) [SERPINA1 25277 site]
- activity (ZFN 25277 (synthetic)): 40.9 % indel

Sequence: GAGCAGACGATGAGAAGCCATCCTGCCA (double strand) [human TTR 60501 site]
- activity (ZFN 60501 (synthetic)): 47.6 % indel
- activity (ZFN 64066 (synthetic)): 37.3 % indel
- activity (ZFN 67451 (synthetic)): 36.6 % indel

Sequence: GAGGCTGGGGAGTAGAGGCAGGCATCGT (double strand) [human PCSK9 60259 site]
- activity (ZFN 60259 (synthetic)): 75.7 % indel

Sequence: GCTAAGTGCATGGCTGTCTGGTTCTGTA (double strand) [mouse PCSK9 site E left]
- activity (ZFN 60412 (synthetic)): 28.6 % indel
- activity (ZFN 64944 (synthetic)): 49.1 % indel
- activity (ZFN 64946 (synthetic)): 51.3 % indel
- activity (ZFN 64947 (synthetic)): 42 % indel

Sequence: GGCACGCTGTTGAAGTCGGTGATGGTGA (double strand) [mouse PCSK9 site A right]
- activity (ZFN 60423 (synthetic)): 35.8 % indel
- activity (ZFN 64842 (synthetic)): 44.9 % indel
- activity (ZFN 64844 (synthetic)): 42.9 % indel
